Consider five substances from patent US20200360486A1.

Data set [1] has as its target Cy3-conjugated K9-C-peptide (C-peptide bound to the elastin-like polypeptide composed of 9 [(VPGVG)11(VPGKG)1(VPGVG)1] repeating units), as hydrogel on an amine array. Description: cell-based or functional assay.
Data set [2] concerns Cy3-conjugated K9-C-peptide (C-peptide bound to the elastin-like polypeptide composed of 9 [(VPGVG)11(VPGKG)1(VPGVG)1] repeating units), as hydrogel on an amine array.
Cy3-conjugated K9-C-peptide (C-peptide bound to the elastin-like polypeptide composed of 9 [(VPGVG)11(VPGKG)1(VPGVG)1] repeating units), as hydrogel on an amine array, sequence (chain, as listed by the source): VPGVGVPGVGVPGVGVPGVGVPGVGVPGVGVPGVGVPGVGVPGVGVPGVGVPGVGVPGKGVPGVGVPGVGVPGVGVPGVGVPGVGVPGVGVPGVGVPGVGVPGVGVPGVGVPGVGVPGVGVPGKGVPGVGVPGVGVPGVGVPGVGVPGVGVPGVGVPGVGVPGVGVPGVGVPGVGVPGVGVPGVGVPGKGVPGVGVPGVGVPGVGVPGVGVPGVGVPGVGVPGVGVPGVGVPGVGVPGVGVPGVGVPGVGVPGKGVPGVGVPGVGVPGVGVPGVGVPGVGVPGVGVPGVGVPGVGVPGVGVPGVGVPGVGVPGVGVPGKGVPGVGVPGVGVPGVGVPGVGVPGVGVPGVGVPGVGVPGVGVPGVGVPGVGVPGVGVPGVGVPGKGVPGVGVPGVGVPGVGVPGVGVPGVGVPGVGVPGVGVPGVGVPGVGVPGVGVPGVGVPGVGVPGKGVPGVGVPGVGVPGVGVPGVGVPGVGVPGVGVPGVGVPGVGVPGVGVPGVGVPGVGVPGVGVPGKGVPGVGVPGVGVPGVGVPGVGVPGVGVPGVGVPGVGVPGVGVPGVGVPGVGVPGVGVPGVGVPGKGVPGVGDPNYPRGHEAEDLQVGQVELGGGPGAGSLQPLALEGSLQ

collagenase-2 (enzyme): the EC50 of on-chip degradation of Cy3-conjugated K9-C-peptide hydrogel versus protease concentration in data set [1] worked out at 0.17 U/ml.

Regarding pepsin (enzyme), the EC50 of on-chip degradation of Cy3-conjugated K9-C-peptide hydrogel versus protease concentration in data set [1] was 510 U/ml. On to elastase-2, for which, in data set [2], the “highest degradation rate of the hydrogel, at 120 min (time course)” value was 72.3% at 120 min; the “hydrogel degraded after the first elastase-2 treatment (repeated every 30 min)” value was 48.6+/-0.8%; the “maximum degradation rate, after the fifth elastase-2 treatment” value is recorded as 89.7+/-0.2%. In turn, elastase-2 (enzyme) came in with an EC50 of on-chip degradation of Cy3-conjugated K9-C-peptide hydrogel versus protease concentration in data set [1] of 0.23 U/ml. In the case of trypsin (enzyme), the EC50 of on-chip degradation of Cy3-conjugated K9-C-peptide hydrogel versus protease concentration in data set [1] was 125 U/ml.
